In PMC3663649 (2013):

Experiments:
[1] = target: T1, H3KC36me3 nucleosomes (recombinant MLA nucleosomes reconstituted on 601 DNA) (Drosophila, UniProt P02299 1-136; P84040 1-103; P84051 1-124; P02283 1-123, H3KC36me3, cysteine at 36 alkylated to a thioether mimic of trimethyl-lysine (H3KC36me3)); experiment: EMSA titration 2 (bottom)
[2] = target: T1, H3KC36me3 nucleosomes (recombinant MLA …); experiment: EMSA titration 1 (top)

B1: GST-PWWP (PSIP1-PWWP domain, residues 3 to 100, GST fusion) (domain or fragment)
chain: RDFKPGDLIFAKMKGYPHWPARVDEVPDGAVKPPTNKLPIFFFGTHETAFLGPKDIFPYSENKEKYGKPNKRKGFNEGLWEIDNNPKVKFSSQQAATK
- Kd [1]: 600 nM
- Kd [2]: 400 nM
